Laboratory results published in patent US20090123480A1 (REGENTS OF THE UNIVERSITY OF MICHIGAN, published 2009).
Non-standard residues stand in square brackets, D forms with d. No end group written: not given here. *: point of attachment. 5FAM = O=C1OC2(c3ccc(O)cc3Oc3cc(O)ccc32)c2ccc(C(=O)*)cc21; Abu = CC[C@H](N)C(=O)O

Key:
[1] = biological target: caspase-7 (UniProt P55210); assay: cell-based or functional assay
[2] = biological target: caspase-3 (UniProt P42574); assay: cell-based or functional assay
Chain of caspase-3 (P42574 29-277 limits assumed): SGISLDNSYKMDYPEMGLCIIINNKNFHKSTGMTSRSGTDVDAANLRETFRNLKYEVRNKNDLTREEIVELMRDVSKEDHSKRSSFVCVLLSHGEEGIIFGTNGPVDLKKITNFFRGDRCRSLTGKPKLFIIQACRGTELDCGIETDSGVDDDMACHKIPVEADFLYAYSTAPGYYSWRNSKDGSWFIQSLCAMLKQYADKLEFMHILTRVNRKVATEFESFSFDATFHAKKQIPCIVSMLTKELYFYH

[3] = biological target: human XIAP protein (residues 120-356) (human) (UniProt P98170); assay: fluorescence polarization competition against the Smac2-F tracer
Chain of human XIAP protein (residues 120-356) (human) (P98170 120-356 limits assumed): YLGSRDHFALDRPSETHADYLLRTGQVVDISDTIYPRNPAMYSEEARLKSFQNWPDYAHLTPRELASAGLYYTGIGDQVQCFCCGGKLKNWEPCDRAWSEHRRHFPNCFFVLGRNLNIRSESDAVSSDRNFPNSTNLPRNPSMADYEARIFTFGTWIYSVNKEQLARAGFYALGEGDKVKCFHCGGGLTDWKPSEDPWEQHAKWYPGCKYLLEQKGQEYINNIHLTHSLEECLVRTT

[4] = biological target: T1, recombinant XIAP BIR3 protein of human XIAP (residues 241-356) fused to His-tag (human, UniProt P98170 241-356); assay: fluorescence polarization, direct binding of the labelled peptide
T1 construct: range 241-356; not shown: His-tag
T1 sequence (P98170 241-356 limits assumed): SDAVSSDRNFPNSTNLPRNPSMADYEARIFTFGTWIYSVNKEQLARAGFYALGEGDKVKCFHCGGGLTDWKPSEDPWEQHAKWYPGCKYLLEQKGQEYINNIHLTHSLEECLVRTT

Chain of caspase-7 (P55210 24-303 limits assumed): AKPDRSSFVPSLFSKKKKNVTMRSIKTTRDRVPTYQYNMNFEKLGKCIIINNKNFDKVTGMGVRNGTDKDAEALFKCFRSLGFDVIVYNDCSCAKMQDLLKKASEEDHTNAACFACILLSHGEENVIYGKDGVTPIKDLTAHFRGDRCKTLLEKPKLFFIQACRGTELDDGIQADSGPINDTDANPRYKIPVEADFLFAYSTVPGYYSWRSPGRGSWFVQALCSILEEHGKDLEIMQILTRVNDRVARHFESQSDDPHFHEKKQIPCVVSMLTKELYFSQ

For “human XIAP protein (residues 120-356) (from UniProt P98170 120-356)”, the inhibition of caspase-3/-7 activity, cell-free functional assay [1] was 50 nM and the inhibition of caspase-3/-7 activity, cell-free functional assay [2] was 50 nM.

With “natural Smac peptide AVPI (SEQ ID NO: 1)” the fold less potent than the small molecule SH-164 (IC50 […] nM) in the competitive binding assay [3] was over 5000 fold.

B1: mutated Smac peptide AbuRPF-K-(5-Fam)-NH2 (termed SM5F) (peptide)
peptide: [Abu]RPFK(5FAM)-NH2
modifications: N-terminus assumed
SMILES: CC[C@H](N)C(=O)N[C@@H](CCCNC(=N)N)C(=O)N1CCC[C@H]1C(=O)N[C@@H](Cc1ccccc1)C(=O)N[C@@H](CCCCNC(=O)c1ccc2c(c1)C(=O)OC21c2ccc(O)cc2Oc2cc(O)ccc21)C(N)=O
notes: Fluorescent tracer of the XIAP BIR3 fluorescence polarization assay; also called SM5F peptide
With B1 the Kd [4] was 17.9 nM.
